US20200206198A1, “CFTR CHANNEL ACTIVATOR FOR USE IN THE TREATMENT AND/OR PREVENTION OF GLUTEN SENSITIVITY CONDITIONS” (priority 2017, published 2020)

Molecular target: T1, PM-associated CFTR (Homo sapiens, UniProt P13569)
T1 construct: Immunoprecipitations of endogenous proteins were performed on 500 μg of lysates from Caco-2 cells; host or cells: Caco-2, T84
Assay: CFTR plasma membrane disposal in Caco-2 cells (membrane fractions)
Assay type: cell-based
Procedure: Human colon adenocarcinoma-derived Caco-2 and T84 cells were obtained from the ATCC. Cells were maintained in T25 flask in Modified Eagle Medium (MEM) for Caco-2, or Ham's F12+DMEM (1:1) for T84, supplemented with 10% fetal bovine serum (FBS), 2 mM Glutamine+1% Non Essential Amino Acids (NEAA) and the antibiotics penicillin\streptomycin (100 units/ml) (all reagents from Lonza) (Luciani, A., et al. 2010. Cells were grown in Transwells (Corning, 3470 or 3460) under the normal condition (Luciani, A., et al. 2012). Briefly, 8×10^4 or 5×10^5 cells were seeded in 6.5-mm diameter or 12-mm diameter, respectively, and grown until the RT reached 800 to 1,200 Ω·cm2. Transwells with a pore size of 0.4 μm were used. Medium in both the apical and basolateral chambers was changed every other day. Cells were treated with 20 μg/ml of either α-gliadin peptide P31-43 or […] or scrambled PGAV or modified P31-43 either biotin-tagged or not, for different time point (from 1 h short challenge up to 24 h). Cells were also treated with 50 or 100 μg/ml of P57-68 or PGAV peptides for 3 h. Caco-2 or T84 cells were also treated with: CFTR potentiators VX-770 (10 μM) or VX-532 (20 μM) (Selleck chemicals) or Genistein (10 μM) (Sigma-Aldrich) or in presence or absence of CFTR inhibitor172 (CFTRinh172, 20 μM) or 3-methyl-adenine (3-MA, 20 μM) (Calbiochem), Z-DON (20 nM, Zedira) or BAPTA-AM (10 μM, Calbiochem).
The whole lysate or membrane fraction proteins of cell lines and mice intestine homogenates were obtained from treated and untreated cells or mice as described. The equal amount of protein were resolved by SDS-PAGE gel and blotted with antibodies against: SQSTM1, (Sigma Aldrich, 108k4767) 1:1000, PPARγ (Santa Cruz Biotechnology, sc7273) 1:500, BECN1 (Abcam, ab58878) 1:1000, CFTR clone M3A7 (Abcam, ab4067) 1:500, phospho-ERK1/2 (php42/44, Cell Signaling Technology, #91101) 1:1000, UVRAG (Santa Cruz Biotechnology sc8215) 1:1000, NHERF-1 (BD, 611161) 1:1000, EZRIN (BD, 610603) 1:1000, hVps34 (SigmaV9764) 1:300, biotin (Abcam, ab1227) 1:2000, PKAr2a (BD, 610625) 1:500, Ubiquitin (Cell Signaling clone P4D1, #3936) 1:1000, CHIP (Calbiochem PC711) 1:500, Caspase-1 p10 (M-20) (Santa Cruz Biotechnology, sc-514) 1:200, NLRP3 (Abcam, ab4207), 1:500, IDO1 (monoclonal; cv152) 1:1000^[80], used as primary antibodies. Normalization was performed by probing the membrane with anti-β-actin (Cell Signaling, #4970) 1:1000, anti-Gapdh (Sigma-Aldrich, G8795) 1:1000 and anti-flottilin (Abcam ab15148) 1:1000 antibodies. Immunoprecipitations of endogenous proteins were performed on 500 μg of lysates from Caco-2 cells. The proteins were incubated for 12-18 h at 4° C. with 10 ug\ml of specific antibody followed by the addition of Protein A/G-agarose beads for 4 h at 4° C. The beads were then washed three times with lysis buffer and Laemmli's sample buffer was added to the samples. The membranes were then blotted with: CFTR clone CF3 (Abcam, ab2784) 1:1000, TG2 (clone CUB7402; NeoMarkers) 1:1000, CHIP (Calbiochem PC711) 1:500, Ubiquitin (Cell Signaling clone P4D1 3936), isopeptide (Abcam 422) 1:1000, PKAR2 (BD 610625) 1:500.
Protein from membrane fractionation were obtained as described. Cells were homogenized with a PotterElvehjem pestle and centrifuged at 2300×g for 15 min at 4° C. […]

T1 sequence (P13569 whole entry): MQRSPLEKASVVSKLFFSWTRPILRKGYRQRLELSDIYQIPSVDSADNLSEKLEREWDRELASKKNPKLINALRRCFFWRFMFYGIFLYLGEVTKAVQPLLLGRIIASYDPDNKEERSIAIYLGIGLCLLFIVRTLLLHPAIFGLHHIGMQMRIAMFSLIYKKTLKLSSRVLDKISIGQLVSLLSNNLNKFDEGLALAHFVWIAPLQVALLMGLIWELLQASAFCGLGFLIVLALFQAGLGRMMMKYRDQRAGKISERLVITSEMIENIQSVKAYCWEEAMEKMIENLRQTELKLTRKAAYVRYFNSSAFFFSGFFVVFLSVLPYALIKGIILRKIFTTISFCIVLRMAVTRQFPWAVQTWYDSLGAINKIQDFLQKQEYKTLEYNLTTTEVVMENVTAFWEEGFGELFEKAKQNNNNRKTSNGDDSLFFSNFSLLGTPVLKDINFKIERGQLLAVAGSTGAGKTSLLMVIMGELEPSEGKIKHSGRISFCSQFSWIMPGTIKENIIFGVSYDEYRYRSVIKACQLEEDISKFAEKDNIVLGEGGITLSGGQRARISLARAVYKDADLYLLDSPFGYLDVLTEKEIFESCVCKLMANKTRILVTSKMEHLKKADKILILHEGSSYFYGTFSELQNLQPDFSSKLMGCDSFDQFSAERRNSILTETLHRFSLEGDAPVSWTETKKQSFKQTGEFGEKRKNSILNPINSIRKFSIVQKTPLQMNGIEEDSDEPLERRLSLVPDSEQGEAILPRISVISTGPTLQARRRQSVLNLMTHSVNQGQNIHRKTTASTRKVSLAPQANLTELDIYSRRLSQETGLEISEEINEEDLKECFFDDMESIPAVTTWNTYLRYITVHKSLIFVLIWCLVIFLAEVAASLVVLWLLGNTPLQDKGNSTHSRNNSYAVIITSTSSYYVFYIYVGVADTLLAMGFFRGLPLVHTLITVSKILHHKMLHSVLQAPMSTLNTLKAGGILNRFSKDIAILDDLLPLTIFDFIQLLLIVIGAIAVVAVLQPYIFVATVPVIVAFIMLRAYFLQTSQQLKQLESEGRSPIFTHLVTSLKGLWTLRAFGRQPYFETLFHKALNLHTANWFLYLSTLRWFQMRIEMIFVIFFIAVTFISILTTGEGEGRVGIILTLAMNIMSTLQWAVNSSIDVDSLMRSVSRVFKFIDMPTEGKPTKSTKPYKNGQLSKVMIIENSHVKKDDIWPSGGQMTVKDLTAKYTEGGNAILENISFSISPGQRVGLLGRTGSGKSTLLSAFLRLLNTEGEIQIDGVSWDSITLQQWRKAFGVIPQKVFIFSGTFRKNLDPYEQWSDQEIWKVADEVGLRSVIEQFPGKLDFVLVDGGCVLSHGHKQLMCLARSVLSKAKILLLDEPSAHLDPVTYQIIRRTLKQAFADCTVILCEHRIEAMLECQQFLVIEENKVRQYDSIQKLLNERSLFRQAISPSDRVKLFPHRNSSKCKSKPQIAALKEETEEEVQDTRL

Row | Compound | CHIP-mediated CFTR ubiquitilation | abundance of plasma membrane-associated SQSTM1/p62 | overall abundance of PM-associated CFTR (after 24 h of challenge) | effect on P31-43-induced reduction of PM-associated CFTR
1 | α-gliadin peptide LGQQQPFPPQQPY (SEQ ID 1), induces an enterocyte stress response (P31-43 sequence of alpha-gliadin) | promoted | increased the abundance | reduction of the overall abundance of PM-associated CFTR | 
2 | CC(C)(C)c1cc(C(C)(C)C)c(NC(=O)c2c[nH]c3ccccc3c2=O)cc1O [VX-770, N-(2,4-di-tert-butyl-5-hydroxyphenyl)-4-oxo-1,4-dihydroquinoline-3-carboxamide] |  |  |  | counteracted
